Assay results: patent publication US20260132197A1

Assays:
[1] = molecular target: cynomolgus CD47 on CHO-K1 stable cell line (cynomolgus); experiment: flow cytometry on cynomolgus CD47 CHO-K1 cells; plateau not reached, not accurate
Human CD47-C33G (human) [2] = molecular target: Human CD47-C33G (human) (UniProt Q08722); experiment: SPR, IgG captured, CD47 in flow; exp 1; estimated, out of instrument limit
[3] = molecular target: human CD47 on cells (SHP-77 tumor cells, human red blood cells, CCRF-CEM cells, human CD47 CHO-K1 stable cell line) (human) (UniProt Q08722); experiment: cell-based or functional assay
[4] = molecular target: human CD47 on cells (SHP-77 tumor cells, human red blood cells, CCRF-CEM cells, human CD47 CHO-K1 stable cell line) (human) (UniProt Q08722); experiment: flow cytometry on human CD47 CHO-K1 cells; plateau not reached, not accurate
[5] = molecular target: human CD47 on cells (SHP-77 tumor cells, human red blood cells, CCRF-CEM cells, human CD47 CHO-K1 stable cell line) (human) (UniProt Q08722); experiment: flow cytometry on SHP-77 cells
Human CD47-C33G (human) [6] = molecular target: Human CD47-C33G (human) (UniProt Q08722); experiment: SPR, IgG captured, CD47 in flow; exp 4
[7] = molecular target: wild type human CD47 (Acro Biosystems, cat. no. CD7-H5227) (human) (UniProt Q08722); experiment: SPR, IgG captured, CD47 in flow; exp 4
Human CD47-C33G (human) [8] = molecular target: Human CD47-C33G (human) (UniProt Q08722); experiment: SPR, IgG captured, CD47 in flow; exp 1
[9] = molecular target: wild type human CD47 (Acro Biosystems, cat. no. CD7-H5227) (human) (UniProt Q08722); experiment: SPR, IgG captured, CD47 in flow; exp 1
Human CD47-C33G (human) [10] = molecular target: Human CD47-C33G (human) (UniProt Q08722); experiment: SPR, IgG captured, CD47 in flow; exp 2
[11] = molecular target: wild type human CD47 (Acro Biosystems, cat. no. CD7-H5227) (human) (UniProt Q08722); experiment: SPR, IgG captured, CD47 in flow; exp 2
Human CD47-C33G (human) [12] = molecular target: Human CD47-C33G (human) (UniProt Q08722); experiment: SPR, IgG captured, CD47 in flow; exp 1; remark: listed apart in the source
[13] = molecular target: wild type human CD47 (Acro Biosystems, cat. no. CD7-H5227) (human) (UniProt Q08722); experiment: SPR, IgG captured, CD47 in flow; exp 1; remark: listed apart in the source
Human CD47-C33G (human) [14] = molecular target: Human CD47-C33G (human) (UniProt Q08722); experiment: SPR, IgG captured, CD47 in flow; exp 2; remark: listed apart in the source
[15] = molecular target: wild type human CD47 (Acro Biosystems, cat. no. CD7-H5227) (human) (UniProt Q08722); experiment: SPR, IgG captured, CD47 in flow; exp 2; remark: listed apart in the source
Human CD47-C33G (human) [16] = molecular target: Human CD47-C33G (human) (UniProt Q08722); experiment: SPR, IgG captured, CD47 in flow; exp 3
[17] = molecular target: wild type human CD47 (Acro Biosystems, cat. no. CD7-H5227) (human) (UniProt Q08722); experiment: SPR, IgG captured, CD47 in flow; exp 3
Human CD47-C33G (human) [18] = molecular target: Human CD47-C33G (human) (UniProt Q08722); experiment: SPR, IgG captured, CD47 in flow; exp 2; estimated, out of instrument limit
Human CD47-C33G (human) [19] = molecular target: Human CD47-C33G (human) (UniProt Q08722); experiment: SPR, IgG captured, CD47 in flow; exp 3; estimated, out of instrument limit
[20] = molecular target: human CD47 on cells (SHP-77 tumor cells, human red blood cells, CCRF-CEM cells, human CD47 CHO-K1 stable cell line) (human) (UniProt Q08722); experiment: flow cytometry on human RBCs

cynomolgus CD47 on CHO-K1 stable cell line (cynomolgus), sequence (chain, as listed by the source): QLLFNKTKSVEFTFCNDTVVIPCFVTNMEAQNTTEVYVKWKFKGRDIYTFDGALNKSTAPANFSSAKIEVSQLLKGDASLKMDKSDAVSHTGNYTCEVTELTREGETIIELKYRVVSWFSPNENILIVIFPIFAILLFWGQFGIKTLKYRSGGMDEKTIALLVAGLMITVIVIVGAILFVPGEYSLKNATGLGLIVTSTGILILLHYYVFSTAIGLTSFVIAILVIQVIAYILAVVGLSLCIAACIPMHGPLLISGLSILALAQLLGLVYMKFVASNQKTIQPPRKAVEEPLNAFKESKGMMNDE

B1: TJC4 positive control antibody (antibody, INN chains, looked up, V domains shown)
VH: EVQLVESGGGLVKPGGSLRLSCAASGLTFERAWMNWVRQAPGKGLEWVGRIKRKTDGETTDYAAPVKGRFSISRDDSKNTLYLQMNSLKTEDTAVYYCAGSNRAFDIWGQGTMVTVSS
VL: DIVMTQSPDSLAVSLGERATINCKSSQSVLYAGNNRNYLAWYQQKPGQPPKLLINQASTRASGVPDRFSGSGSGTEFTLIISSLQAEDVAIYYCQQYYTPPLAFGGGTKLEIK
In the case of B1, the EC50 [1] is reported as 9.7 nM, the Kd (Human CD47-C33G (human) [2]) is reported as over 530 nM and the koff (Human CD47-C33G (human) [2]) is reported as over 0.1 s⁻¹. For the same binder, the CCRF-CEM phagocytosis EC50 [3] was 0.49 nM, the CCRF-CEM phagocytosis, Phagocytosis (%) [3] was 68.6% and the EC50 [4] was 5.7 nM. For the same binder, the EC50 [5] was 2.8 nM, the Fitted maximal MFI [5] was 25400 MFI and the Kd (Human CD47-C33G (human) [6]) was 600 nM. It also gave a koff (Human CD47-C33G (human) [6]) of 0.13 s⁻¹, a kon (Human CD47-C33G (human) [6]) of 210000 M⁻¹ s⁻¹ and a Kd [7] of 4.7 nM. For the same binder, the koff [7] was 0.0018 s⁻¹, the kon [7] was 380000 M⁻¹ s⁻¹ and the Kd (Human CD47-C33G (human) [8]) was 540 nM. For the same binder, the koff (Human CD47-C33G (human) [8]) was 0.09 s⁻¹, the kon (Human CD47-C33G (human) [8]) was 170000 M⁻¹ s⁻¹ and the Kd [9] was 4.4 nM. It also gave a koff [9] of 0.0024 s⁻¹, a kon [9] of 550000 M⁻¹ s⁻¹ and a kon (Human CD47-C33G (human) [10]) of 490000 M⁻¹ s⁻¹. The Kd [11] was 4.3 nM, the koff [11] was 0.0024 s⁻¹ and the kon [11] was 540000 M⁻¹ s⁻¹. The kon (Human CD47-C33G (human) [12]) was 190000 M⁻¹ s⁻¹, the Kd [13] was 4.5 nM and the koff [13] was 0.0022 s⁻¹. It also gave a kon [13] of 500000 M⁻¹ s⁻¹, a Kd (Human CD47-C33G (human) [14]) of 540 nM and a koff (Human CD47-C33G (human) [14]) of 0.09 s⁻¹. The kon (Human CD47-C33G (human) [14]) was 170000 M⁻¹ s⁻¹, the Kd [15] was 4.4 nM and the kon [15] was 550000 M⁻¹ s⁻¹. The kon (Human CD47-C33G (human) [16]) was 160000 M⁻¹ s⁻¹, the Kd [17] was 4.7 nM and the koff [17] was 0.0022 s⁻¹. The kon [17] was 460000 M⁻¹ s⁻¹, the Kd (Human CD47-C33G (human) [18]) was over 200 nM and the Kd (Human CD47-C33G (human) [19]) was over 630 nM. It also gave a koff (Human CD47-C33G (human) [19]) of over 0.1 s⁻¹, an EC50 [20] of 4.3 nM and a Fitted maximal MFI [20] of 21400 MFI.
